{
  "source": "patent US20150184142",
  "key": {"[1]": {"system": "Compound 1"}, "[2]": {"system": "Compound 5"}, "[3]": {"system": "Compound 4"}, "[4]": {"system": "T1, Compound 7", "T1 sequence": "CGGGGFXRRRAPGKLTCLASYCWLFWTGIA"}},
  "data": [
    {"substance": "thrombin", "values": [
      {"measurement": "cleavage by 1.4 nM thrombin at 37 C, HPLC", "setting": "[1]", "value": "30% of Compound 1 was quickly cleaved and released"},
      {"measurement": "cleavage rate with 14 nM thrombin, HPLC, against Compound 2", "setting": "[1]", "value": "at least 10-fold increase in cleavage rate compared to that of Compound 2"},
      {"measurement": "cleavage by 1.4 nM thrombin at 37 C, HPLC", "setting": "[2]", "value": "Compound 1 was a better substrate for thrombin than Compounds 4 and 5"},
      {"measurement": "cleavage by 1.4 nM thrombin at 37 C, HPLC", "setting": "[3]", "value": "Compound 1 was a better substrate for thrombin than Compounds 4 and 5"},
      {"measurement": "cleavage by 1.4 nM thrombin in PBS at 37 C, HPLC", "setting": "[4]", "value": "Approximately 90% of Compound 7 was cleaved after 30 minutes"}
    ]}
  ]
}
